Numbering of substitutions follows the chain as printed.

In assay [1] the target is PAI-1WT (wild-type plasminogen activator inhibitor 1, recombinant) (UniProt P05121). Put plainly: SPR; competition: 250 nM PAI-1WT preincubated with increasing concentrations of SMB, then flowed over immobilised full-length SorLA; HBS-P buffer with 1.0 mM CaCl2, pH 7.4, 25°C. For orientation: SPR reads the build-up and loss of mass on a sensor chip optically.
The target of assay [2] is T1, Soluble full-length SorLA (sortilin-related receptor 1) (UniProt Q92673 82-2137). Put plainly: SPR.
For assay [3], the target named is T2, SorLA VPS10 domain (vacuolar protein sorting 10 domain).
T2 chain: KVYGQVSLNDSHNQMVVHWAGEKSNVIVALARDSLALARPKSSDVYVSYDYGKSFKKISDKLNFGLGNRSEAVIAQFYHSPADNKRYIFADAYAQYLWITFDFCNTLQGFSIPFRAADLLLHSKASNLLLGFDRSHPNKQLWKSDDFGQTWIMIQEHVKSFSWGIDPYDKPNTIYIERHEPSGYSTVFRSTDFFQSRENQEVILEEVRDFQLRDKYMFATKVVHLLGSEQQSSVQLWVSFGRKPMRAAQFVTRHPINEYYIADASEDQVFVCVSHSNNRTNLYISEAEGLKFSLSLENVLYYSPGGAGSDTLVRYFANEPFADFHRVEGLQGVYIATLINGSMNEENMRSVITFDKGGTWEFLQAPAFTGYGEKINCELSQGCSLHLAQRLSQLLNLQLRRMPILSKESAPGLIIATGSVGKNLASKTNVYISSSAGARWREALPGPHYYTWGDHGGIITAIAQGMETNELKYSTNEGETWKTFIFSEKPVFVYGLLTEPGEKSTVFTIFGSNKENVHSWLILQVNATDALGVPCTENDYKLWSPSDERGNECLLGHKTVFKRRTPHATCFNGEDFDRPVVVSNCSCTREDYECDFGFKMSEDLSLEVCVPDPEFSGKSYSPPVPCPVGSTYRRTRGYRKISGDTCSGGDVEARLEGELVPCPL
Put plainly: SPR.

Assay [4] has as its target T1, Soluble full-length SorLA …. Put plainly: SPR; SorLA or its VPS10 domain immobilised on a CM5 chip (5,000 and 2,500 RU); PAI-1 flowed over; HBS-P buffer with 1.0 mM CaCl2, pH 7.4, 25°C, 20 uL/min; equilibrium analysis (Req/Rmax), single binding site.

For the molecule “Somatomedin B (SMB) domain of vitronectin (VTN) (from UniProt P04004 20-63) (domain or fragment)”, the 50% inhibitory concentration (IC50) in assay [1] is 464 nM.

B1: PAI-1WT (wild-type plasminogen activator inhibitor 1, recombinant) (natural protein)
chain: VHHPPSYVAHLASDFGVRVFQQVAQASKDRNVVFSPYGVASVLAMLQLTTGGETQQQIQAAMGFKIDDKGMAPALRHLYKELMGPWNKDEISTTDAIFVQRDLKLVQGFMPHFFRLFRSTVKQVDFSEVERARFIINDWVKTHTKGMISHLLGTGAVDQLTRLVLVNALYFNGQWKTPFPDSSTHRRLFHKSDGSTVSVPMMAQTNKFNYTEFTTPDGHYYDILELPYHGDTLSMFIAAPYEKEVPLSALTNILSAQLISHWKGNMTRLPRLLVLPKFSLETEVDLRKPLENLGMTDMFRQFQADFTSLSDQEPLHVALALQKVKIEVNESGTVASSSTAVIVSARMAPEEIIIDRPFLFVVRHNPTGTVLFMGQVMEP
For the molecule B1, the Kd is 102 nM in assay [2], 1590 nM in assay [3] and 126 nM in assay [4].

B2: PAI-1AK (PAI-1 Arg101Ala, Gln123Lys) (natural protein)
chain: B1 chain with R101A, Q123K
Consider B2, for which the dissociation constant Kd in assay [2] was 491 nM; in assay [4] it was 540 nM.

In general, IC50 refers to the concentration that inhibits the measured activity by half. For orientation: Kd means the free concentration of one partner at which half of the binding sites on the other are occupied at equilibrium, for simple one-to-one binding.

The values are drawn from PMC12220977 (2025).
